Experimental data taken from publication PMC5751952.

Target: wild-type ElDyP lacking the His6 tag (subtilisin A-treated, for crystallization) (Enterobacter lignolyticus)
Assay: crystal structure

wild-type ElDyP lacking the His6 tag (subtilisin A-treated, for crystallization) (enzyme)
stoichiometry N: 2
